B1: STK4 (residues 1–326) K59R [human] / HOIP (residues 854–1072) [not stated] (parent complex)
chain 1: METVQLRNPPRRQLKKLDEDSLTKQPEEVFDVLEKLGEGSYGSVYKAIHKETGQIVAIRQVPVESDLQEIIKEISIMQQCDSPHVVKYYGSYFKNTDLWIVMEYCGAGSVSDIIRLRNKTLTEDEIATILQSTLKGLEYLHFMRKIHRDIKAGNILLNTEGHAKLADFGVAGQLTDTMAKRNTVIGTPFWMAPEVIQEIGYNCVADIWSLGITAIEMAEGKPPYADIHPMRAIFMIPTNPPPTFRKPELWSDNFTDFVKQCLVKSPEQRATATQLLQHPFVRSAKGVSILRDLINEAMDVKLKRQESQQREVDQDDEENSEEDEMD
chain 2: EYQAQGLAMYLQENGIDCPKCKFSYALARGGCMHFHCTQCRHQFCSGCYNAFYAKNKCPEPNCRVKKSLHGHHPRDCLFYLRDWTALRLQKLLQDNNVMFNTEPPAGARAVPGGGCRVIEQKEVPNGLRDEACGKETPAGYAGLCQAHYKEYLVSLINAHSLDPATLYEVEELETATERYLHVRPQPLAGEDPPAYQARLLQKLTEEVPLGQSIPRRRK

Variants of: B1
Assay: ITC

Q: How did the Kd turn out when chain 1 R231E was run?
A: 97.9 µM
